This note sets out measurements from article PMC6384913, “Exploring the suitability of RanBP2-type Zinc Fingers for RNA-binding protein design”.

The target of series [1] is T1, (ZRANB1-B-ZF)x2 (Danio rerio, UniProt A0JMQ9 152-182).
T1 chain: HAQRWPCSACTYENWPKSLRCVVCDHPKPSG
Briefly: ITC; ITC: 50 mM Tris pH 7.5, 150 mM NaCl, 1 mM DTT, 0.1 mM ZnCl2, 25 °C; BLI: 50 mM Tris pH 7.5, 150 mM NaCl, 1 mM DTT, 0.1% BSA, 0.02% Tween, 30 °C. The following applies: protein: recombinant; tags: GST cleaved (HRV-3C). On the technique in general: In ITC the heat of successive injections is recorded.

Series [2] concerns the target T2, (FUS-ZF)x2 (Xenopus laevis, UniProt Q7ZXQ2 435-467).
T2 chain: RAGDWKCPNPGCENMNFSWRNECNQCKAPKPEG
The series can be described thus: BLI; ITC: 50 mM Tris pH 7.5, 150 mM NaCl, 1 mM DTT, 0.1 mM ZnCl2, 25 °C; BLI: 50 mM Tris pH 7.5, 150 mM NaCl, 1 mM DTT, 0.1% BSA, 0.02% Tween, 30 °C. The following applies: protein: recombinant; tags: GST cleaved (HRV-3C); label: 5' biotin. Background: Biolayer interferometry detects binding as a change in optical thickness at a sensor tip.

For series [3], the target named is T3, (EWS-ZF)x2 (Homo sapiens, UniProt Q01844-5 523-555). Described as above. The following applies: protein: recombinant; tags: GST cleaved (HRV-3C); label: 5' biotin.
T3 sequence (Q01844 518-550): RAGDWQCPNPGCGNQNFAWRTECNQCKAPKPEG
Series [4] has as its target T4, (hRBM10-ZF)x2 (Homo sapiens, UniProt P98175 212-243).
T4 chain: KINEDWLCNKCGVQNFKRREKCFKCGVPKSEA
Described as above. The following applies: protein: recombinant; tags: GST cleaved (HRV-3C); label: 5' biotin.

Series [5] deals with T5, (ABI3-5Sup-ZF)x2 (Arabidopsis thaliana, UniProt F4JCU0 379-406).
T5 chain: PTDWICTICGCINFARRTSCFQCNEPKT
Described as above. Conditions: protein: recombinant; tags: GST cleaved (HRV-3C); label: 5' biotin.

The target in series [6] is T2, (FUS-ZF)x2. The series can be described thus: ITC; ITC: 50 mM Tris pH 7.5, 150 mM NaCl, 1 mM DTT, 0.1 mM ZnCl2, 25 °C; BLI: 50 mM Tris pH 7.5, 150 mM NaCl, 1 mM DTT, 0.1% BSA, 0.02% Tween, 30 °C. Conditions: protein: recombinant; tags: GST cleaved (HRV-3C).
For series [7], the target named is T3, (EWS-ZF)x2. The description is as above. Conditions: protein: recombinant; tags: GST cleaved (HRV-3C).
In series [8] the target is T5, (ABI3-5Sup-ZF)x2. The description is as above. The following applies: protein: recombinant; tags: GST cleaved (HRV-3C).
Series [9] deals with T6, (mRBM10-ZF N4D)x2 (Mus musculus, UniProt Q99KG3-2 135-166+=GSGSG+135-166, V161M;internal_change).
T6 sequence: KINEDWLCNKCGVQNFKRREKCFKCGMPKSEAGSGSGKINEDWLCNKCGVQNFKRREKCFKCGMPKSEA
Briefly: BLI; ITC: 50 mM Tris pH 7.5, 150 mM NaCl, 1 mM DTT, 0.1 mM ZnCl2, 25 °C; BLI: 50 mM Tris pH 7.5, 150 mM NaCl, 1 mM DTT, 0.1% BSA, 0.02% Tween, 30 °C. Conditions: protein: recombinant; tags: GST cleaved (HRV-3C); label: 5' biotin.

B1: polyA control 12-mer (ssRNA)
RNA: AAAAAAAAAAAA
Take B1: the binding result in series [1] is given as “no binding”.

B2: (GGC)x2 biotin (ssRNA)
RNA: AAAGGCGGCAAA
For B2, the binding result in series [2] and in [3] was “no binding” in each case. Moreover, in series [4], the Kd (commonly the constant that tells how readily two partners part at equilibrium) worked out at 2600 ± 30 nM.

B3: (AGU)x2 biotin (ssRNA)
RNA: AAAAGUAGUAAA
Consider B3, for which the binding result in series [2], in series [3], in series [4] and in series [5] was “no binding” each time.

B4: (GAU)x2 biotin (ssRNA)
RNA: AAAGAUGAUAAA
For the molecule B4, the binding result in series [2], in series [3], in series [4] and in series [5] was “no binding” in each case.

B5: (GGU)x2 (ssRNA)
RNA: AAAGGUGGUAAA
Turning to B5, the figures for the Kd in [6], in series [7] and in series [8] were 200 ± 20 nM, 200 ± 30 nM and 700 ± 100 nM, respectively. The binding result in series [1] was “no binding”.

B6: (GGA)x2 biotin (ssRNA)
RNA: AAAGGAGGAAAA
As to B6, the binding result in [2] and in series [3] was “no binding” each time. The Kd in series [4] came out at 1400 ± 10 nM; in series [5], 2600 ± 1000 nM.

B7: (GGG)x2 biotin (ssRNA)
RNA: AAAGGGGGGAAA
For B7, the Kd in series [2] stood at 1100 ± 300 nM; in series [3], 1100 ± 10 nM; in [9], 400 ± 30 nM; in [4], 300 ± 30 nM; in series [5], 3000 ± 500 nM.

B8: (GGU)x2 biotin (ssRNA)
RNA: AAAGGUGGUAAA
As for B8, the Kd in series [2] worked out at 800 ± 70 nM; in series [3], 800 ± 60 nM; in [4], 500 ± 10 nM; in [5], 1000 ± 10 nM.

B9: (GGA)x2 (ssRNA)
RNA: AAAGGAGGAAAA
Consider B9, for which the Kd in series [8] amounted to 1000 ± 100 nM.

B10: (AAA)x2 biotin (ssRNA)
RNA: AAAAAAAAAAAA
On to B10, for which the binding result in series [2], in [3], in series [4] and in series [5] was “no binding” throughout.
